The format of the series is cell-based, P. pastoris. The procedure:
Precultures of P. pastoris transformants were prepared in buffered complex glycerol media (BMGY). BMGY contained: 10 g/l yeast extract, 20 g/l peptone, 3.4 g/l yeast nitrogen base, 10 g/l ammonium sulfate, 100 mM potassium phosphate (pH 6), 0.4 mg/l biotin and 1% (v/v) glycerol. Erlenmeyer flasks (500 ml) containing 50 ml BMGY media were inoculated with single colonies of 24 h old YPD-agar cultures of P. pastoris KM71 mut^s3/CYP505E3 and incubated at 30° C. and 225 rpm for 24 h. The cultures were harvested using pre-weighed centrifuge tubes at 3000 g for 5 min and stored on ice until further use.
The main cultures for expression were prepared in buffered complex methanol media (BMMY) containing 10 g/l yeast extract, 20 g/l peptone, 3.4 g/l yeast nitrogen base, 10 g/l ammonium sulfate, 100 mM potassium phosphate (pH 6), 0.4 mg/l biotin and 0.5 or 1% (v/v) methanol. Harvested cells from precultures were resuspended in BMMY media to final concentration of 1 g WC per 40 ml (appx. 25 g/l). The resuspended cultures (100 ml) were transferred to 500 ml Erlenmeyer flasks and incubated at 25° C. and 225 rpm for 24 h. The cultures were then harvested at 3000 g for 5 min using pre-weighed centrifuge tubes.
Different transformants of Pichia pastoris KM71 harbouring the CYP505 genes for SEQ ID Nos 1 to 7 and 9 to 12 were grown and harvested as described above. The harvested cells were resuspended to give 1 g wet cell weight in 40 ml MOPS buffer (200 mM, 100 mM glucose, 100 mM glycerol, pH 8) and 1 ml aliquots of these cell suspensions were transferred to 40 ml amber vials. Dodecane, 1-dodecanol and 1-tetradecanol were added neat to these cell suspensions to give final concentrations of 200 mM in the case of the alcohols and 1 M in the case of dodecane while in the case of dodecanoic acid 20 μl of a 500 mM stock solution (in DMSO) was added to give a final concentration of 10 mM. Transformants harbouring the CYP505 genes for SEQ ID Nos 1 to 4 were tested for the biotransformation of 1-dodecanol, 1-tetradecanol, dodecanoic acid, tetradecanoic acid and dodecane, while those harbouring the CYP505 genes for SEQ ID Nos 5 to 7 and 9 to 12 were only tested for the biotransformation of 1-dodecanol and dodecanoic acid. The biotransformations were incubated at 25° C. and 225 rpm for 24 h. Extractions were performed using ethyl acetate (500 μl×2). The extracts were analyzed using GC/MS.

B1: CYP505St: CYP505 cytochrome P450 monooxygenase from Setosphaeria turcica, Seq ID 12 in Table 2 (protein, listed as Setosphaeria turcica)
chain: MSAPNRQLVPIPGPSALPIVGNTFDLDLDASIQSLVNMFEEYGPVFQLTIAGHKQIFVGNVQLTNEVCDESRFCKIVFSGLELLRSAVHDGLFTAHEGERNWDIAHRILMPVFGPTKIRGMFDQMNDIAQQLCLKWGRYGPTFPIEVTEDFTRLTLDTIALCAMGYRFNSFYRDNMHPFVDRMNRFLKDTNTQSGLPDLFNSLWLHAKKRNKEDIKAMREFSQEVVDQRRQNPVDADDLLNALLHQTDPKTGEGLSDSSIIDNMITFLVAGHETTSGLLSFAFYYMLKNPWAMEKAQQEVDNVIGTERVTVNHLSKLEYLNAILRETLRLMPTAPAFTVGALKDDVIGGKYAVKKGEPINPILQAVHCDKEVYGPDATEWKPERMLEEGFHKLPANSWKPFGNGKRGCIGRAFAWQEALLVVAVLLQSFTFTEDDPSYQLRIREALTIKPDGFKIRATLREHKTTAGMVPESVQSLRQAQKSGKPGNSKSSANESMVGQGNGRSVSIFYGSNSGSCESLANLLASDCAKYGFSVQTTDALDAARENFTSNQIVLIVASTYDGKPADNATEFVNWLKSLTGEPLKGVSYAVFGCGHHDWATTFYKIPILIDELLEQRGAQRVAPRGAANAAVSDLFSDLEKWEESILWPALGLTPALLESQGDTQPRLTISFQRPYTQRKEFLEATVTSASELTTSASPSRKCHMELQLPQDMTYNTGDYLAVLPLNPLSNVQRALSRFHLAWDSVLVIEATGPTQLPTATPISVADLFGAYVELSQPATPRNIRALAGAASDEPTKQALLKLAEDDFATQVRDKRLSVLDLLGQYESVALPVEAFIEMLLPLRPRTYSISSAPQWNPSHASITWSIIDTVSWSGHGRFLGVASNHLYDLSPGAVVRVSVRRSNPAFHPPQDPNSYPIIMIASGSGLAPFRGFIQERALQQKAGMTLAPALLFFGCRGRDDDLHRAEMDDFEKSGVVRVMRAYSKAPNEPDAFGCAYIQERVWSERKEFRELWNRGATVFVCGGTKMSEAIKDVFIKIAYGNAGQDDNKSSRDWFASLDPHRYVAEVFN
For B1, the “ω-7 hydroxylase activity C12FA” value was “−” and the “ω-7 hydroxylase activity C12ol” value was “−”.
